Columns and labels:
Conditions in all cases: tags: SV40 NLS, 3xFLAG, nucleoplasmin NLS
LPG50140-nAPG07433.1 = LPG50140-nAPG07433.1 (synthetic); test: cell_activity; mutated reads, HEK293FT; PAM 3' of target
Description: (§1) 500 ng of plasmid comprising an expression cassette comprising a coding sequence for a fusion protein shown in Table 10 and 500 ng of plasmid comprising an expression cassette encoding for an sgRNA shown in Table 11 were co-transfected into HEK293FT cells at 75-90% confluency in 24-well plates using Lipofectamine 2000 reagent (Life Technologies). Cells were then incubated at 37° C. for 72 h. Following incubation, genomic DNA was then extracted using NucleoSpin 96 Tissue (Macherey-Nagel) following the manufacturer's protocol. The genomic region flanking the targeted genomic site was PCR amplified using the primers in Table 11 and products were purified using ZR-96 DNA Clean and Concentrator (Zymo Research) following the manufacturer's protocol. The purified PCR products underwent Next Generation Sequencing on Illumina MiSeq. Typically, 100,000 of 250 bp paired-end reads (2×100,000 reads) are generated per amplicon. The reads were analyzed using CRISPResso (Pinello, et al. 2016 Nature Biotech, 34:695-697) to calculate the rates of editing. Output alignments were analyzed for INDEL formation or introduction of specific adenine mutations.
(§2) The editing rate for adenines within or proximal to the target sequence is indicated. “A5” indicates, for example, an adenine at position 5 of the target sequence. The position of each nucleotide in the target sequence was determined by numbering the first nucleotide in the target sequence closest to the PAM (which is 3′ of the target for APG07433.1) as position 1, and the position number increases in the 5′ direction away from the PAM sequence. The tables also show which nucleotide the adenine was changed to, and at what rate.

LPG50148-nAPG07433.1 = LPG50148-nAPG07433.1 (synthetic); test: as above
Sequence of LPG50148-nAPG07433.1 (synthetic) (chain, as listed by the source): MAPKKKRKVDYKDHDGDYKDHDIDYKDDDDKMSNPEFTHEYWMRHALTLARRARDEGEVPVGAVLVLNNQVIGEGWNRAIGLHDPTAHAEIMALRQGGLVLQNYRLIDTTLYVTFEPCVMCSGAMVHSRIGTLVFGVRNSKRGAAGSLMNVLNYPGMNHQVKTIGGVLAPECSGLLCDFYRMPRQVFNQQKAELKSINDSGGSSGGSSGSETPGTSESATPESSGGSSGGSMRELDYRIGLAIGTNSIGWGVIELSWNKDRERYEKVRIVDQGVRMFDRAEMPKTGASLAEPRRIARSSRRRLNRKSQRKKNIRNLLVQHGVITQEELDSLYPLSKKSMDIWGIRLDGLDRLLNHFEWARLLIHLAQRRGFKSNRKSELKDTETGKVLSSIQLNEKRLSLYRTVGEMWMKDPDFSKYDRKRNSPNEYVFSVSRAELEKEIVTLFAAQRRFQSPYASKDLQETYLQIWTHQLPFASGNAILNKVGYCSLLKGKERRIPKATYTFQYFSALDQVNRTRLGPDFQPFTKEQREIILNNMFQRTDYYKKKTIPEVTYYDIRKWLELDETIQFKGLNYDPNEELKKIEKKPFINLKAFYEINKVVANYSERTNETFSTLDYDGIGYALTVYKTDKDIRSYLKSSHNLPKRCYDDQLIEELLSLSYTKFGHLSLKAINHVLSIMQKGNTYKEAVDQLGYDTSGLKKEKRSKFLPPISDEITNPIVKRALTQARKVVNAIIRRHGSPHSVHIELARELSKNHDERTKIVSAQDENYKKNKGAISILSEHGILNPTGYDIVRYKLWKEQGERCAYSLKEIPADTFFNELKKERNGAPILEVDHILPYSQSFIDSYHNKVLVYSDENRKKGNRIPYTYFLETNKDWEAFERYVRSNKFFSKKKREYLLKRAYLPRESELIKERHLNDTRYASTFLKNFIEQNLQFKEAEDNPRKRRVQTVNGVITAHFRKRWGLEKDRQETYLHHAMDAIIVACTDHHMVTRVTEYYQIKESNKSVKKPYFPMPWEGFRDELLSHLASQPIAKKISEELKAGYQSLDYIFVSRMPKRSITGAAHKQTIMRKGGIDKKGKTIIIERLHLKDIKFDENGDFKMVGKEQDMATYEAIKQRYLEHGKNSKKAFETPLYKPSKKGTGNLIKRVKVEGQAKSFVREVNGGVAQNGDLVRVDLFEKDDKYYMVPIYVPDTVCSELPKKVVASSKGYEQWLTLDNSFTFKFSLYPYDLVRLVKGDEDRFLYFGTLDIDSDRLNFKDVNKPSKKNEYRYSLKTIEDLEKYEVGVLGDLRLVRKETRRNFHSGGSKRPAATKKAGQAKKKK
Description: as §1, §2

LPG50162-nAPG07433.1 = LPG50162-nAPG07433.1 (synthetic); test: cell_activity; mutated reads, HEK293FT
Description: as §1, §2

LPG50141-nAPG07433.1 = LPG50141-nAPG07433.1 (synthetic); test: cell_activity; mutated reads, HEK293FT
Description: as §1, §2

LPG50151-nAPG07433.1 = LPG50151-nAPG07433.1 (synthetic); test: cell_activity; mutated reads, HEK293FT
Description: as §1, §2

LPG50182-nAPG07433.1 = LPG50182-nAPG07433.1 (synthetic); test: cell_activity; mutated reads, HEK293FT
Description: as §1, §2

LPG50160-nAPG07433.1 = LPG50160-nAPG07433.1 (synthetic); test: cell_activity; mutated reads, HEK293FT
Description: as §1, §2

LPG50150-nAPG07433.1 = LPG50150-nAPG07433.1 (synthetic); test: cell_activity; mutated reads, HEK293FT
Description: as §1, §2

LPG50170-nAPG07433.1 = LPG50170-nAPG07433.1 (synthetic); test: cell_activity; mutated reads, HEK293FT
Description: as §1, §2

LPG50171-nAPG07433.1 = LPG50171-nAPG07433.1 (synthetic); test: cell_activity; mutated reads, HEK293FT
Description: as §1, §2

LPG50147-nAPG07433.1 = LPG50147-nAPG07433.1 (synthetic); test: cell_activity; mutated reads, HEK293FT
Description: as §1, §2

LPG50178-nAPG07433.1 = LPG50178-nAPG07433.1 (synthetic); test: cell_activity; mutated reads, HEK293FT
Description: as §1, §2

LPG50143-nAPG07433.1 = LPG50143-nAPG07433.1 (synthetic); test: cell_activity; mutated reads, HEK293FT
Description: as §1, §2

LPG50177-nAPG07433.1 = LPG50177-nAPG07433.1 (synthetic); test: cell_activity; mutated reads, HEK293FT
Description: as §1, §2

LPG50149-nAPG07433.1 = LPG50149-nAPG07433.1 (synthetic); test: cell_activity; mutated reads, HEK293FT
Description: as §1, §2

LPG50174-nAPG07433.1 = LPG50174-nAPG07433.1 (synthetic); test: cell_activity; mutated reads, HEK293FT
Description: as §1, §2

LPG50164-nAPG07433.1 = LPG50164-nAPG07433.1 (synthetic); test: cell_activity; mutated reads, HEK293FT
Description: as §1, §2

LPG50181-nAPG07433.1 = LPG50181-nAPG07433.1 (synthetic); test: cell_activity; mutated reads, HEK293FT
Description: as §1, §2

LPG50157-nAPG07433.1 = LPG50157-nAPG07433.1 (synthetic); test: cell_activity; mutated reads, HEK293FT
Description: as §1, §2

LPG50152-nAPG07433.1 = LPG50152-nAPG07433.1 (synthetic); test: cell_activity; mutated reads, HEK293FT
Description: as §1, §2

LPG50166-nAPG07433.1 = LPG50166-nAPG07433.1 (synthetic); test: cell_activity; mutated reads, HEK293FT
Description: as §1, §2

LPG50145-nAPG07433.1 = LPG50145-nAPG07433.1 (synthetic); test: cell_activity; mutated reads, HEK293FT
Description: as §1, §2

LPG50158-nAPG07433.1 = LPG50158-nAPG07433.1 (synthetic); test: cell_activity; mutated reads, HEK293FT
Sequence of LPG50158-nAPG07433.1 (synthetic) (chain, as listed by the source): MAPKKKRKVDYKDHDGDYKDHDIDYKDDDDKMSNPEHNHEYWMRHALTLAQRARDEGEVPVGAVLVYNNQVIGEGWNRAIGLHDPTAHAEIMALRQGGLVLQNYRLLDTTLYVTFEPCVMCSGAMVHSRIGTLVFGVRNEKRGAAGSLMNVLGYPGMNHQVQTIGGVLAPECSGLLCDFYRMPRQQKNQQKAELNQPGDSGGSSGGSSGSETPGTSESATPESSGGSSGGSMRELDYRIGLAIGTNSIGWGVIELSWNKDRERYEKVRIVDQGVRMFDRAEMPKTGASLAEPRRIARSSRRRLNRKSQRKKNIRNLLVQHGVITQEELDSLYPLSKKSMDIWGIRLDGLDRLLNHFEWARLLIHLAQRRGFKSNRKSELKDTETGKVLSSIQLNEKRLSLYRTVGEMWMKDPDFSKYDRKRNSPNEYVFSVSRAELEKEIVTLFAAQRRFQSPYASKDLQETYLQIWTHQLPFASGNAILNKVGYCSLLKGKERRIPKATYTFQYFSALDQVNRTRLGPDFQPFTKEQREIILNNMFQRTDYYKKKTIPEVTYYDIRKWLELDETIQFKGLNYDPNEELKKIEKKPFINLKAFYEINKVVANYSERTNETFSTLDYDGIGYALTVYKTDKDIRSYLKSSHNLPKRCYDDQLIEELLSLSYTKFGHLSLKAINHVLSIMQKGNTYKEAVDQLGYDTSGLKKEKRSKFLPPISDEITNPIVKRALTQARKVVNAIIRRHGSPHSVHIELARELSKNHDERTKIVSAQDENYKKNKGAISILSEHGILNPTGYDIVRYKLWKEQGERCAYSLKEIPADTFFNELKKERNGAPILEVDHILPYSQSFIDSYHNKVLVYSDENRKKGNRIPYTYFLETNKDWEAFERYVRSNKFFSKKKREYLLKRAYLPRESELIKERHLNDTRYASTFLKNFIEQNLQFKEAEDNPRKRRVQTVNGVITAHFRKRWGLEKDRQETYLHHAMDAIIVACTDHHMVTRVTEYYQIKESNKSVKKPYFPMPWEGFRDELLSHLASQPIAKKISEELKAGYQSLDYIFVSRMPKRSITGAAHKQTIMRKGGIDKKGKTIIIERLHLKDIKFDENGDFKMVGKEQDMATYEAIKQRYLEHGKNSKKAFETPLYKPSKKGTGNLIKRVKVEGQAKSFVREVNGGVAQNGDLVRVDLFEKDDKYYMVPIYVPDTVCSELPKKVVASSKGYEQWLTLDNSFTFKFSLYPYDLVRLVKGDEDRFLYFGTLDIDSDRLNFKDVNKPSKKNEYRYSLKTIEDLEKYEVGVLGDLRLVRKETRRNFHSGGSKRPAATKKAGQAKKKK
Description: as §1, §2

LPG50165-nAPG07433.1 = LPG50165-nAPG07433.1 (synthetic); test: cell_activity; mutated reads, HEK293FT
Description: as §1, §2

LPG50168-nAPG07433.1 = LPG50168-nAPG07433.1 (synthetic); test: cell_activity; mutated reads, HEK293FT
Description: as §1, §2

LPG50173-nAPG07433.1 = LPG50173-nAPG07433.1 (synthetic); test: cell_activity; mutated reads, HEK293FT
Description: as §1, §2

LPG50159-nAPG07433.1 = LPG50159-nAPG07433.1 (synthetic); test: cell_activity; mutated reads, HEK293FT
Description: as §1, §2

LPG50163-nAPG07433.1 = LPG50163-nAPG07433.1 (synthetic); test: cell_activity; mutated reads, HEK293FT
Description: as §1, §2

LPG50156-nAPG07433.1 = LPG50156-nAPG07433.1 (synthetic); test: cell_activity; mutated reads, HEK293FT
Description: as §1, §2

LPG50144-nAPG07433.1 = LPG50144-nAPG07433.1 (synthetic); test: cell_activity; mutated reads, HEK293FT
Description: as §1, §2

LPG50175-nAPG07433.1 = LPG50175-nAPG07433.1 (synthetic); test: cell_activity; mutated reads, HEK293FT
Description: as §1, §2

LPG50169-nAPG07433.1 = LPG50169-nAPG07433.1 (synthetic); test: cell_activity; mutated reads, HEK293FT
Description: as §1, §2

LPG50155-nAPG07433.1 = LPG50155-nAPG07433.1 (synthetic); test: cell_activity; mutated reads, HEK293FT
Description: as §1, §2

LPG50142-nAPG07433.1 = LPG50142-nAPG07433.1 (synthetic); test: cell_activity; mutated reads, HEK293FT
Description: as §1, §2

LPG50146-nAPG07433.1 = LPG50146-nAPG07433.1 (synthetic); test: cell_activity; mutated reads, HEK293FT
Description: as §1, §2

LPG50179-nAPG07433.1 = LPG50179-nAPG07433.1 (synthetic); test: cell_activity; mutated reads, HEK293FT
Description: as §1, §2

LPG50167-nAPG07433.1 = LPG50167-nAPG07433.1 (synthetic); test: cell_activity; mutated reads, HEK293FT
Description: as §1, §2

LPG50176-nAPG07433.1 = LPG50176-nAPG07433.1 (synthetic); test: cell_activity; mutated reads, HEK293FT
Description: as §1, §2

LPG50154-nAPG07433.1 = LPG50154-nAPG07433.1 (synthetic); test: cell_activity; mutated reads, HEK293FT
Description: as §1, §2

LPG50161-nAPG07433.1 = LPG50161-nAPG07433.1 (synthetic); test: cell_activity; mutated reads, HEK293FT
Description: as §1, §2

LPG50153-nAPG07433.1 = LPG50153-nAPG07433.1 (synthetic); test: cell_activity; mutated reads, HEK293FT
Description: as §1, §2

LPG50172-nAPG07433.1 = LPG50172-nAPG07433.1 (synthetic); test: cell_activity; mutated reads, HEK293FT
Description: as §1, §2

LPG50180-nAPG07433.1 = LPG50180-nAPG07433.1 (synthetic); test: cell_activity; mutated reads, HEK293FT
Sequence of LPG50180-nAPG07433.1 (synthetic) (chain, as listed by the source): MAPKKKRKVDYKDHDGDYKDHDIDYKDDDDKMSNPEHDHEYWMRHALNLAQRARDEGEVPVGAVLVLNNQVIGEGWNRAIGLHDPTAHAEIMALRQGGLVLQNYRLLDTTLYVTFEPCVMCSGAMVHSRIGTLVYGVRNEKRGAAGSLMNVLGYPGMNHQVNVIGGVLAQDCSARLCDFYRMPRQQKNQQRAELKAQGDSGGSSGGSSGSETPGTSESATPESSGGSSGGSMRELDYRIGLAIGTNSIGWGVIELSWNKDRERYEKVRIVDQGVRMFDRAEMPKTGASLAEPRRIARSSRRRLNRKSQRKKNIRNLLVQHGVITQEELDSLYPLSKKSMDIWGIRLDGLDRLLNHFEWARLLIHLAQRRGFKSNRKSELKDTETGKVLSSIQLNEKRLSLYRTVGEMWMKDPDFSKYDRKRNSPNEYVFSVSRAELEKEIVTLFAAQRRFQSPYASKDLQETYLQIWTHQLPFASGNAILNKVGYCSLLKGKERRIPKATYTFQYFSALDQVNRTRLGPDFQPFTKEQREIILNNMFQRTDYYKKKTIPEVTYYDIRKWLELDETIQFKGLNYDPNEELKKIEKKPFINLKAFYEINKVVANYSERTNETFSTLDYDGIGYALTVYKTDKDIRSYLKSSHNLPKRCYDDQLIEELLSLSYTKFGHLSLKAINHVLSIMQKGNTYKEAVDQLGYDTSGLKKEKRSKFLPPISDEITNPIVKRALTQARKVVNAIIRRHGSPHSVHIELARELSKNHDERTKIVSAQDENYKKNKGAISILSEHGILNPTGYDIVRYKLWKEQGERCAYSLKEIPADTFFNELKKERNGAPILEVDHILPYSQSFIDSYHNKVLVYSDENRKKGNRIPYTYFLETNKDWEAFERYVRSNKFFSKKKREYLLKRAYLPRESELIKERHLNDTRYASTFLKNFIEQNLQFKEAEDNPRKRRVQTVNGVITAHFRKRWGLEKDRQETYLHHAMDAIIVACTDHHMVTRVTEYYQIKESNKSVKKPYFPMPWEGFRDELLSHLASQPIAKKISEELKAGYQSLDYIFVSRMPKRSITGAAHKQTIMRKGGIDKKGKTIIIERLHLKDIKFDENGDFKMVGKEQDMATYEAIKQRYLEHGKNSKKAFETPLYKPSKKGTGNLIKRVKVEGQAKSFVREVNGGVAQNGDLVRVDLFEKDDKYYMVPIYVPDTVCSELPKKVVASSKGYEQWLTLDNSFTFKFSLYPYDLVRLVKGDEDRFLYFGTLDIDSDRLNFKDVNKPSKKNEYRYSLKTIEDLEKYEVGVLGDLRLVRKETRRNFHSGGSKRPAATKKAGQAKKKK
Description: as §1, §2

B1: SGN000186 sgRNA (Table 11) ; SGN000186 target (Table 11) (ssRNA ; dsDNA)
RNA: GGACAGUGCGCAUCUCCCUGGUCAUAGUUCCAUUAAAGCCAAAAGUGGCUUUGAUGUUUCUAUGAUAAGGGUUUCGACCCGUGGCGUCGGGGAUCGCCUGCCCAUUGAAAUGGGCUUCUCCCCAUUUAUU
DNA 1: GGACAGTGCGCATCTCCCTG
DNA 2: CAGGGAGATGCGCACTGTCC
LPG50140-nAPG07433.1
  activity: 18.8%
LPG50148-nAPG07433.1
  activity: 32.6%
LPG50162-nAPG07433.1
  activity: 14%
LPG50141-nAPG07433.1
  activity: 9.79%
LPG50151-nAPG07433.1
  activity: 7.76%
LPG50182-nAPG07433.1
  activity: 9%
LPG50160-nAPG07433.1
  activity: 16%
LPG50150-nAPG07433.1
  activity: 23.7%
LPG50170-nAPG07433.1
  activity: 12.2%
LPG50171-nAPG07433.1
  activity: 12.7%
LPG50147-nAPG07433.1
  activity: 12.6%
LPG50178-nAPG07433.1
  activity: 12.9%
LPG50143-nAPG07433.1
  activity: 10.6%
LPG50177-nAPG07433.1
  activity: 11%
LPG50149-nAPG07433.1
  activity: 22.1%
LPG50174-nAPG07433.1
  activity: 8%
LPG50164-nAPG07433.1
  activity: 7.38%
LPG50181-nAPG07433.1
  activity: 12.6%
LPG50157-nAPG07433.1
  activity: 12.2%
LPG50152-nAPG07433.1
  activity: 18%
LPG50166-nAPG07433.1
  activity: 8%
LPG50145-nAPG07433.1
  activity: 9.93%
LPG50158-nAPG07433.1
  activity: 4.91%
LPG50165-nAPG07433.1
  activity: 9.88%
LPG50168-nAPG07433.1
  activity: 7%
LPG50173-nAPG07433.1
  activity: 7.88%
LPG50159-nAPG07433.1
  activity: 6.99%
LPG50163-nAPG07433.1
  activity: 10%
LPG50156-nAPG07433.1
  activity: 12.7%
LPG50144-nAPG07433.1
  activity: 12.2%
LPG50175-nAPG07433.1
  activity: 14%
LPG50169-nAPG07433.1
  activity: 13%
LPG50155-nAPG07433.1
  activity: 17%
LPG50142-nAPG07433.1
  activity: 14.1%
LPG50146-nAPG07433.1
  activity: 17.8%
LPG50179-nAPG07433.1
  activity: 12.5%
LPG50167-nAPG07433.1
  activity: 8%
LPG50176-nAPG07433.1
  activity: 7%

B2: SGN001681 sgRNA ; SGN001681 target (ssRNA ; dsDNA)
RNA: CCGUGCCUUGACCUACCCUGGUCAUAGUUCCAUUAAAGCCAAAAGUGGCUUUGAUGUUUCUAUGAUAAGGGUUUCGACCCGUGGCGUCGGGGAUCGCCUGCCCAUUGAAAUGGGCUUCUCCCCAUUUAUU
DNA 1: CCGTGCCTTGACCTACCCTG
DNA 2: CAGGGTAGGTCAAGGCACGG
LPG50148-nAPG07433.1
  activity: 49.4%
LPG50154-nAPG07433.1
  activity: 2.26%
LPG50161-nAPG07433.1
  activity: 1.47%
LPG50153-nAPG07433.1
  activity: 1.12%
LPG50172-nAPG07433.1
  activity: 1.78%
LPG50180-nAPG07433.1
  activity: 1.8%
